The text below walks through data of US20060211003.

The data set has as its system putative Thermus thermophilus Pol III ε-subunit.

Regarding “Thermus thermophilus DNA Pol III α-subunit (DnaE)”, the “3′→5′ exonuclease activity” value is “This interaction stimulates the 3′→5′ exonuclease activity 5 fold”.
